Assay: soluble on expression in E. coli; label from the status in PepcDB or PDB records

Sequence | soluble on expression in E. coli
MKGFCYRCGHEGELLDGLCKICYTHMNPLIEVDNEVHVEVCHMCGSYKRKLWQDPQKRETYEIMEEIAYFGVKDNLKKANKSIDVEIMPQEPRQLPGGKRSRVEIPTVVFAKGRLVGEDNDREEERHITVYLDMVQCPRCSRCMSNYYEGTLQVRAMNRFLNDKERIELDDFVRDEAGKRLNKDRMAFISKYIPQKEGLDYQMGSMGAIRNIASAIKAKYGGKSIETAKLVGVDKDTGKDMYRITVAVRIPEFKLGDILEHKEKIYVVSSLNESRVYMEPVELGDKIALVWNEIDKSAKLIKKGEDCETATVISITPDTITAMDDSNYEIYEYNNTIENVKEGNKIRIFKNEEINRILEIIELEHHHHHH | soluble
MKGLENAIRNLNSLDRQMVPRASIWAVNRVAQKAVSVATRKVARETVAGDNQVRGLPLKLVRQRVRLFKAGTDGKRSARIRINRGNLPAIKLGAAQVRMSKRRGKLLYRGSVLKIGPYLFRDAFIQQLANGRWHVMRRVNGKNRYPIDVVKIPLSGPLTQAFESATQSLIDEEIPKQLGYALKQQLRLYLSR | not soluble
MKGLKERQDRRLGAFLGLAVGDALGAQVEGLPKGTFPEVREMKGGGPHRLPPGFWTDDTSQALCLAESLLQRGFDPKDQMDRYLRWYREGYRSATGVCFGLGHATRRALERYAATGDPYAGDEAGAGNGPLMRLAPLVLAYENHPDLLSLARRAARTTHGAREALEATEVLAWLLREALRGAPKEALLALEPFRGADLHPALRRVVEGGFWEAPEEGPGYAPGTLAAALWAFARGRDFEEGMRLAVNLGGDADTVGAVYGQLAGAYYGLGAIPGRWLRALHLREEMEALALALYRMSMASPRE | soluble
MKIALMMENSQAAKNAMVAGELNSVAGGLGHDVFNVGMTDENDHHLTYIHLGIMASILLNSKAVDFVVTGCGTGQGALMSCNLHPGVVCGYCLEPSDAFLFNQINNGNAISLAFAKGFGWAGELNVRYIFEKAFTGKRGEGYPIERAAPQQANAAILNNVKAAVAKDVVEGLRAIDQELVKTAVGSTQFQECFFAHCQVPEIAEYVKSLLD | soluble
MKIAYFSDTYYPTPDGVSTYLKDVKRGLEKRGHEVYIFSLTGDPHEKNVFIPRTVPFPPYDQYRMPLIPFPFREFKTAVDIMPDVIHLHNAFYMSSVGYLVARRLGKKPISTFHTDIDKMRESIRLPFSDLIFDLGKRYSIYLYRKCKFVLAPSCQVKAYLERCGLKNIVTVPLFVDTDELSPAKASNKQDIILYLGRLTKDKGVYRVLELANEMKGTGYKFIIAGVGPELERMKAYVKENDISNVNILGYVKEDEKKQLMEVSKFFIYPSSADTFGISVFEALSMGLPAIVSKEFPVKEDTNAIVYEDFSNIKHIANKLLNIDQATYSEMSTSARTLAISKYSIDRHIDQLLSLYMSLVDHLEHHHHHH | not soluble
MKIESSCPLPVKPGMTVAQATEACYQSELGADTYVEEFEGWVDIEALEPGDPGRKIVCCVEDGICITVEMKYMELPITDTFYGVDLNCQPGEGWMTSLERVARALEDKGLTVVKRDSYILLPDVFVAIEVGETIGWFDPAYWSREEFLEEAILA | not soluble
MKIESWKEGDFVNVPGKQAVSLEEFYRMRETTDRILEYIDGAVLMSPSPSTQHQRISGRLHVQLFHFLEGKPCEVFHAPFDIELKNERIEGKKIVVPDLTVICDRSGLTDSKFVGVPTLIIEILSPSNQAYDLVFKLNLYMQYGVGEYWIVNPMHSVVQIYSLNDDGQYEQAGVWKETGMACSRALDGFSVDVEQLFRP | not soluble
MKIGFLGFGKSNRSLLKYLLNHQEAKFFVSEAKTLDGETKKFLEEHSVEYEEGGHTEKLLDCDVVYVSPGIKPDTSMIELLSSRGVKLSTELQFFLDNVDPKKVVGITGTDGKSTATALMYHVLSGRGFKTFLGGNFGTPAVEALEGEYDYYVLEMSSFQLFWSERPYLSNFLVLNISEDHLDWHSSFKEYVDSKLKPAFLQTEGDLFVYNKHIERLRNLEGVRSRKIPFWTDENFATEKELIVRGKKYTLPGNYPYQMRENILAVSVLYMEMFNELESFLELLRDFKPLPHRMEYLGQIDGRHFYNDSKATSTHAVLGALSNFDKVVLIMCGIGKKENYSLFVEKASPKLKHLIMFGEISKELAPFVGKIPHSIVENMEEAFEKAMEVSEKGDVILLSPGGASFDMYENYAKRGEHFREIFKRHGGDEV | soluble
MKIIARDRGTGKTTELVKESARTGQYILASNKSHVRAIEQIAKKAGVTIPYPVTVDEIVSMDRFTCASSIQRDGLLVDEAIMVLSKLIGLKITGATISLEGEQQC | not soluble
